± gives the uncertainty stated by the source.
B1: Homeobox protein cut-like 1, residues 941 to 1008; numbered along this chain, P39880 (parent)
chain: QEVDTIELTRQVKEKLAKNGICQRIFGEKVLGLSQGSVSDMLSRPKPWSKLTQKGREPFIRMQLWLNG

Variants of: B1
Experiment: abundance fitness (aPCA) (normalised: wild type 0, dead -1); higher = more abundant; growth selection in yeast, the domain comes from the species named
Conditions: Homo sapiens

| Variant | abundance fitness |
| --- | --- |
| Q35D | 0.066 ± 0.11 |
| Q35N | -0.353 ± 0.14 |
| K46C | -0.369 ± 0.13 |
| K46S | 0.009 ± 0.058 |
| K46N | -0.461 ± 0.089 |
| K46P | 0.112 ± 0.071 |
| K46Q | -0.041 ± 0.06 |
| L42A | -0.324 ± 0.052 |
| L42P | -0.117 ± 0.066 |
| L42R | -0.224 ± 0.052 |
| L42S | -0.236 ± 0.048 |
| L42E | -0.281 ± 0.067 |
| L42T | -0.424 ± 0.069 |
| L42G | -0.275 ± 0.053 |
| R56D | -1.13 ± 0.22 |
| R56Y | -0.444 ± 0.11 |
| R56P | -1.06 ± 0.15 |
| R56F | -0.659 ± 0.17 |
| G20P | -0.141 ± 0.075 |
| G20W | -0.287 ± 0.079 |
| G20Y | -0.104 ± 0.14 |
| G20A | -0.135 ± 0.053 |
| G20D | -0.279 ± 0.11 |
| G20I | -0.361 ± 0.11 |

| Variant | abundance fitness |
| --- | --- |
| K54T | -0.101 ± 0.068 |
| K54G | -0.223 ± 0.064 |
| K54Y | -0.431 ± 0.11 |
| R10N | 0.036 ± 0.097 |
| L66D | -1.21 ± 0.33 |
| L66P | -0.959 ± 0.091 |
| L66E | -0.909 ± 0.15 |
| L66Q | -1.17 ± 0.15 |
| L66W | -0.35 ± 0.068 |
| I6C | -0.091 ± 0.08 |
| I6D | -0.268 ± 0.13 |
| I6M | 0.06 ± 0.059 |
| I6A | 0.076 ± 0.062 |
| S43V | -0.064 ± 0.055 |
| S43P | -0.304 ± 0.072 |
| S43C | -0.153 ± 0.064 |
| S43N | 0.066 ± 0.1 |
| S43T | -0.01 ± 0.096 |
| G68T | -0.402 ± 0.15 |
| G68H | -0.455 ± 0.14 |
| M62W | -0.335 ± 0.075 |
| M62V | -0.388 ± 0.06 |
| M62R | -0.855 ± 0.077 |
| M62I | -0.346 ± 0.12 |

| Variant | abundance fitness |
| --- | --- |
| M62D | -0.86 ± 0.11 |
| N19P | 0.043 ± 0.072 |
| N19G | -0.087 ± 0.052 |
| N19A | -0.033 ± 0.053 |
| N19I | 0.075 ± 0.12 |
| N19M | 0.017 ± 0.078 |
| N19V | 0.023 ± 0.05 |
| W48N | -1.46 ± 0.26 |
| Q63W | -0.032 ± 0.077 |
| Q63V | -0.262 ± 0.056 |
| Q63P | -0.724 ± 0.091 |
| Q63E | -0.272 ± 0.061 |
| E14W | -0.221 ± 0.053 |
| E14L | -0.152 ± 0.059 |
| E14P | 0.005 ± 0.07 |
| A17F | -0.116 ± 0.12 |
| A17V | -0.087 ± 0.047 |
| A17D | 0.014 ± 0.098 |
| A17G | -0.205 ± 0.049 |
| V30P | 0.123 ± 0.4 |
| V30Y | -0.038 ± 0.25 |
| K18E | 0 ± 0.071 |
| K18N | -0.051 ± 0.12 |
| K18R | -0.139 ± 0.048 |

| Variant | abundance fitness |
| --- | --- |
| K18L | -0.168 ± 0.047 |
| P45N | -0.227 ± 0.097 |
| P45V | -0.139 ± 0.063 |
| P45H | -0.124 ± 0.079 |
| P45W | -0.108 ± 0.072 |
| K29C | -0.148 ± 0.088 |
| S34M | -0.017 ± 0.07 |
| S34P | 0.101 ± 0.069 |
| S34W | -0.059 ± 0.07 |
| S34L | -0.113 ± 0.049 |
| I60P | -0.911 ± 0.17 |
| I60L | -0.015 ± 0.052 |
| I60M | -0.054 ± 0.063 |
| K50L | -0.104 ± 0.049 |
| K50V | -0.066 ± 0.053 |
| K50M | -0.012 ± 0.07 |
| K50Y | -0.138 ± 0.092 |
| K50E | 0.022 ± 0.064 |
| R44Y | -0.029 ± 0.099 |
| R44K | 0.098 ± 0.094 |
| R44H | -0.125 ± 0.1 |
| R44V | -0.175 ± 0.063 |
| K15M | -0.148 ± 0.075 |
| K15G | -0.366 ± 0.077 |

| Variant | abundance fitness |
| --- | --- |
| K15E | -0.083 ± 0.13 |
| K15I | -0.085 ± 0.14 |
| K15H | -0.259 ± 0.11 |
| K15A | -0.147 ± 0.11 |
| S37A | 0.118 ± 0.061 |
| C22M | -0.062 ± 0.077 |
| C22H | -0.006 ± 0.11 |
| C22N | -0.192 ± 0.11 |
| V12F | -0.289 ± 0.077 |
| V12T | -0.177 ± 0.062 |
| V12C | -0.461 ± 0.35 |
| V12P | -0.008 ± 0.065 |
| V12E | -0.113 ± 0.069 |
| V12I | -0.338 ± 0.074 |
| V12Y | -0.175 ± 0.089 |
| L8N | 0.011 ± 0.092 |
| L8W | -0.157 ± 0.078 |
| L8A | 0.051 ± 0.069 |
| V38A | -0.215 ± 0.075 |
| V38G | -0.263 ± 0.05 |
| V38I | -0.022 ± 0.12 |
| G55E | 0.17 ± 0.072 |
| G55F | 0.042 ± 0.096 |
| D4F | -0.35 ± 0.072 |

| Variant | abundance fitness |
| --- | --- |
| D4I | -0.503 ± 0.095 |
| D4T | -0.25 ± 0.057 |
| D4G | -0.312 ± 0.066 |
| G32P | -0.21 ± 0.083 |
| G32S | -0.195 ± 0.054 |
| G32Y | -0.415 ± 0.096 |
| G32D | -0.311 ± 0.076 |
| E7S | 0.172 ± 0.3 |
| E57I | -0.097 ± 0.099 |
| E57D | -0.162 ± 0.14 |
| E57R | -0.223 ± 0.054 |
| E57V | -0.192 ± 0.073 |
| E57P | -0.744 ± 0.083 |
| E28L | -0.113 ± 0.045 |
| E28Q | -0.127 ± 0.083 |
| E28R | -0.026 ± 0.053 |
| E28H | -0.197 ± 0.15 |
| T5Y | -0.192 ± 0.12 |
| T5S | -0.177 ± 0.056 |
| D40S | -0.127 ± 0.052 |
| D40Y | -0.212 ± 0.061 |
| D40K | -0.352 ± 0.091 |
| L16M | 0.107 ± 0.071 |
| L16P | 0.004 ± 0.068 |

| Variant | abundance fitness |
| --- | --- |
| L64V | -0.135 ± 0.049 |
| L64T | 0.015 ± 0.061 |
| L64H | -0.137 ± 0.12 |
| L64C | -0.181 ± 0.1 |
| G36I | -0.078 ± 0.1 |
| G36V | -0.084 ± 0.055 |
| G36R | 0.033 ± 0.047 |
| G36C | -0.02 ± 0.066 |
| Q1A | 0.167 ± 0.1 |
| Q1S | 0.045 ± 0.076 |
| Q1P | -0.277 ± 0.086 |
| Q1N | -0.412 ± 0.11 |
| S39G | 0.019 ± 0.06 |
| S39R | 0.007 ± 0.048 |
| S39P | -0.126 ± 0.069 |
| Q23H | -0.117 ± 0.13 |
| Q23E | -0.068 ± 0.09 |
| V3D | -0.174 ± 0.094 |
| V3S | -0.067 ± 0.058 |
| V3W | -0.528 ± 0.085 |
| V3M | -0.045 ± 0.074 |
| V3K | -0.136 ± 0.098 |
| V3H | -0.199 ± 0.12 |

— the Human Domainome abundance scans (Beltran et al. 2025)
